Results on eight molecules are retold here after patent publication US20210032291A1 (University of Pennsylvania, published 2021).

Bridge positions count the residues as written; N and C are the ends. Square brackets hold non-standard residues; d marks the D form. Ends that are not written are not given here. Trp(1-Me) = Cn1cc(C[C@H](N)C(=O)O)c2ccccc21; NMeI = CC[C@H](C)[C@H](NC)C(=O)O; Orn = NCCC[C@H](N)C(=O)O; Sar = CNCC(=O)O

B1: Cp40 (6Asn) (peptide)
peptide: [dY]ICV[Trp(1-Me)]QNW[Sar]AHRC[NMeI]-NH2
modifications: disulfide 3-13; N-terminus assumed
SMILES: CC[C@H](C)[C@H](NC(=O)[C@H](N)Cc1ccc(O)cc1)C(=O)N[C@H]1CSSC[C@@H](C(=O)N(C)[C@H](C(N)=O)[C@@H](C)CC)NC(=O)[C@H](CCCNC(=N)N)NC(=O)[C@H](Cc2c[nH]cn2)NC(=O)[C@H](C)NC(=O)CN(C)C(=O)[C@H](Cc2c[nH]c3ccccc23)NC(=O)[C@H](CC(N)=O)NC(=O)[C@H](CCC(N)=O)NC(=O)[C@H](Cc2cn(C)c3ccccc23)NC(=O)[C@H](C(C)C)NC1=O
B2: Compstatin 30 (Cp30): Sar-Ile-[Cys-Val-Trp(Me)-Gln-Asp-Trp-Sar-Ala-His-Arg-Cys]-mIle-NH2 (peptide)
peptide: GICVWQDWGAHRCI
modifications: Sar (N-methyl-Gly) at Xaa0 (N-terminus); Trp(Me) at position 4; Sar at position 8; mIle at position 13; C-terminal -NH2; cyclic via Cys2-Cys12 disulfide (compstatin position numbering)
B3: Peptide 2: Gly-Ile-[Cys-Val-Trp(Me)-Gln-Asp-Trp-Sar-Ala-His-Arg-Cys]-mIle-NH2 (peptide)
peptide: GICV[Trp(1-Me)]QDW[Sar]AHRC[NMeI]-NH2
modifications: disulfide 3-13; N-terminus assumed
SMILES: CC[C@H](C)[C@H](NC(=O)CN)C(=O)N[C@H]1CSSC[C@@H](C(=O)N(C)[C@H](C(N)=O)[C@@H](C)CC)NC(=O)[C@H](CCCNC(=N)N)NC(=O)[C@H](Cc2c[nH]cn2)NC(=O)[C@H](C)NC(=O)CN(C)C(=O)[C@H](Cc2c[nH]c3ccccc23)NC(=O)[C@H](CC(=O)O)NC(=O)[C@H](CCC(N)=O)NC(=O)[C@H](Cc2cn(C)c3ccccc23)NC(=O)[C@H](C(C)C)NC1=O
B4: Peptide 1: Me-Ile-[Cys-Val-Trp(Me)-Gln-Asp-Trp-Sar-Ala-His-Arg-Cys]-mIle-NH2 (peptide)
peptide: Me-ICVWQDW[Sar]AHRC[NMeI]-NH2
modifications: disulfide 2-12; not fully specified (residue 4); printed as Me-Ile-[Cys-Val-Trp(Me)-Gln-Asp-Trp-Sar-Ala-His-Arg-Cys]-mIle-NH2

In the first experiment the target is T1, C3 protein (target in the classical-pathway complement activation ELISA). In words: cell-based or functional assay.
Take B1: the “IC50, peptide concentration to reach 50% inhibition of classical pathway complement activation” value was 0.26 nM.

[dY]ICV[Trp(1-Me)]QNW[Sar]AH[Orn]C[NMeI]-NH2 (disulfide 3-13) [Cp40 (11Orn 6Asn)]: the “IC50, peptide concentration to reach 50% inhibition of classical pathway complement activation” value is 0.36 nM.

In the case of [dY]ICV[Trp(1-Me)]QDW[Sar]AH[Orn]C[NMeI]-NH2 (disulfide 3-13) [Cp40 (11Orn)], the “IC50, peptide concentration to reach 50% inhibition of classical pathway complement activation” value was determined as 0.22 nM.

In another experiment the target is T1, C3 protein (target in the …). Put plainly: cell-based or functional assay. The source holds these as a separate data set.
On to B2, for which the “IC50, peptide concentration to reach 50% inhibition of classical pathway complement activation (ELISA)” value was 82 nM.

With B3, the “IC50, peptide concentration to reach 50% inhibition of classical pathway complement activation (ELISA)” value came out at 113 nM.

Ac-ICV[Trp(1-Me)]QDWGAHRCT-NH2 (disulfide 2-12) [4(1MeW): Ac-Ile-[Cys-Val-Trp(Me)-Gln-Asp-Trp-Gly-Ala-His-Arg-Cys]-Thr-NH2]: the “IC50, peptide concentration to reach 50% inhibition of classical pathway complement activation (ELISA)” value stood at 132 nM.

For YICV[Trp(1-Me)]QDW[Sar]AHRC[NMeI]-NH2 (disulfide 3-13) [Peptide 4: Tyr-Ile-[Cys-Val-Trp(Me)-Gln-Asp-Trp-Sar-Ala-His-Arg-Cys]-mIle-NH2], the “IC50, peptide concentration to reach 50% inhibition of classical pathway complement activation (ELISA)” value amounted to 72 nM.

Turning to B4, the “IC50, peptide concentration to reach 50% inhibition of classical pathway complement activation (ELISA)” value came out at 180 nM.
